Experimental data reported in patent US10941182 (Amgen, dated 2021).
Starred links: 1 amine or outer side, 2 acyl side, 3 side chain; linkers in the order of their positions; H or OH if unused. Non-standard residues stand in square brackets, D forms with d. Primed or numbered codes have the meaning given here. *: point of attachment. AC4Abu = α-carboxy-4-aminobutyric acid, O=C(C(CCN[*:1])C(=O)[*:3])[*:2]; Oic = O=C(O)[C@@H]1C[C@@H]2CCCC[C@@H]2N1; Phe(4-Cl) = N[C@@H](Cc1ccc(Cl)cc1)C(=O)O; γGlu = O=C(O)[C@H](CCC(=O)[*:2])N[*:1]; NMeR = CN[C@@H](CCCNC(=N)N)C(=O)O; Tridecanoyl = CCCCCCCCCCCCC(=O)*; hArg = N=C(N)NCCCC[C@H](N)C(=O)O; Cha = N[C@@H](CC1CCCCC1)C(=O)O; αMeL = CC(C)C[C@](C)(N)C(=O)O; αMeP = C[C@@]1(C(=O)O)CCCN1; β3hP = O=C(O)C[C@@H]1CCCN1; Nle = CCCC[C@H](N)C(=O)O; Pip′ = not defined here; AEEA = NCCOCCOCC(=O)O; Aib = CC(C)(N)C(=O)O; BLeu = β-leucine

B1: Apelin polypeptide SEQ ID NO: 475 (peptide)
peptide: Tridecanoyl-[γGlu][AEEA][AEEA]QEP[NMeR]LSHKGP[Nle]P[Phe(4-Cl)]-OH
SMILES: CCCCCCCCCCCCC(=O)N[C@@H](CCC(=O)NCCOCCOCC(=O)NCCOCCOCC(=O)N[C@@H](CCC(N)=O)C(=O)N[C@@H](CCC(=O)O)C(=O)N1CCC[C@H]1C(=O)N(C)[C@@H](CCCNC(=N)N)C(=O)N[C@@H](CC(C)C)C(=O)N[C@@H](CO)C(=O)N[C@@H](Cc1c[nH]cn1)C(=O)N[C@@H](CCCCN)C(=O)NCC(=O)N1CCC[C@H]1C(=O)N[C@@H](CCCC)C(=O)N1CCC[C@H]1C(=O)N[C@@H](Cc1ccc(Cl)cc1)C(=O)O)C(=O)O
B2: Apelin polypeptide SEQ ID NO: 520 (peptide)
peptide: Tridecanoyl-[γGlu][AEEA][AEEA]QP[NMeR][Cha]SHKG[Oic][Nle][Aib][Phe(4-Cl)]-OH
SMILES: CCCCCCCCCCCCC(=O)N[C@@H](CCC(=O)NCCOCCOCC(=O)NCCOCCOCC(=O)N[C@@H](CCC(N)=O)C(=O)N1CCC[C@H]1C(=O)N(C)[C@@H](CCCNC(=N)N)C(=O)N[C@@H](CC1CCCCC1)C(=O)N[C@@H](CO)C(=O)N[C@@H](Cc1c[nH]cn1)C(=O)N[C@@H](CCCCN)C(=O)NCC(=O)N1[C@H](C(=O)N[C@@H](CCCC)C(=O)NC(C)(C)C(=O)N[C@@H](Cc2ccc(Cl)cc2)C(=O)O)C[C@@H]2CCCC[C@@H]21)C(=O)O
B3: Apelin polypeptide SEQ ID NO: 392 (peptide)
peptide: Tridecanoyl-[AC4Abu][AEEA][AEEA]QR[αMeP][hArg][BLeu]SHKG[Oic][Nle]P[Phe(4-Cl)]-OH
B4: Apelin polypeptide SEQ ID NO: 501 (peptide)
peptide: Tridecanoyl-[γGlu][AEEA][AEEA][dQ]R[αMeP][hArg][BLeu]SHKG[Pip′][Nle][Phe(4-Cl)]-OH
B5: Apelin polypeptide SEQ ID NO: 502 (peptide)
peptide: Tridecanoyl-[γGlu][AEEA][AEEA][dQ]R[αMeP][hArg][BLeu]SHKG[Oic][Nle][αMeP][Phe(4-Cl)]-OH
B6: Apelin polypeptide SEQ ID NO: 503 (peptide)
peptide: XXXQRPRLSHKGXXPF
modifications: {TDA}[AC4Abu][Aeea][Aeea]qR[aMePro][hArg][BLeu]SHKG[Pip][Nle][aMePro][4-Cl-F]{COOH}
B7: Apelin polypeptide SEQ ID NO: 504 (peptide)
peptide: XXXQRPRLSHKGPXPF
modifications: {TDA}[AC4Abu][Aeea][Aeea]qR[aMePro][hArg][BLeu]SHKG[aMePro][Nle][aMePro][4-Cl-F]{COOH}
B8: Apelin polypeptide SEQ ID NO: 505 (peptide)
peptide: Tridecanoyl-[γGlu][AEEA][AEEA][dQ]R[αMeP][hArg][BLeu]SHKG[Oic][Nle][Aib][Phe(4-Cl)]-OH
B9: Apelin polypeptide SEQ ID NO: 519 (peptide)
peptide: Tridecanoyl-[γGlu][AEEA][AEEA][dQ]R[αMeP][hArg][BLeu]SHKG[Oic][Nle][Phe(4-Cl)]-OH
B10: Apelin polypeptide SEQ ID NO: 556 (peptide)
peptide: Tridecanoyl-[γGlu][AEEA][AEEA][dQ]R[αMeP][hArg][BLeu]SHKG[Oic][Nle][β3hP][Phe(4-Cl)]-OH
B11: Apelin polypeptide SEQ ID NO: 523 (peptide)
peptide: Tridecanoyl-[γGlu][AEEA][AEEA][dQ]R[αMeP][Nle][BLeu]SHKG[Oic][Nle][αMeP][Phe(4-Cl)]-OH
B12: Apelin polypeptide SEQ ID NO: 522 (peptide)
peptide: Tridecanoyl-[γGlu][AEEA][AEEA][dQ]R[β3hP][hArg][BLeu]SHKG[Oic][Nle][Aib][Phe(4-Cl)]-OH
B13: Apelin polypeptide SEQ ID NO: 553 (peptide)
peptide: Tridecanoyl-[γGlu][AEEA][AEEA][dQ]R[β3hP][NMeR][αMeL]SHKG[Oic][Nle][αMeP][Phe(4-Cl)]-OH
SMILES: CCCCCCCCCCCCC(=O)N[C@@H](CCC(=O)NCCOCCOCC(=O)NCCOCCOCC(=O)N[C@H](CCC(N)=O)C(=O)N[C@@H](CCCNC(=N)N)C(=O)N1CCC[C@H]1CC(=O)N(C)[C@@H](CCCNC(=N)N)C(=O)N[C@@](C)(CC(C)C)C(=O)N[C@@H](CO)C(=O)N[C@@H](Cc1c[nH]cn1)C(=O)N[C@@H](CCCCN)C(=O)NCC(=O)N1[C@H](C(=O)N[C@@H](CCCC)C(=O)N2CCC[C@@]2(C)C(=O)N[C@@H](Cc2ccc(Cl)cc2)C(=O)O)C[C@@H]2CCCC[C@@H]21)C(=O)O
B14: Apelin polypeptide SEQ ID NO: 516 (peptide)
peptide: Tridecanoyl-[γGlu][AEEA][AEEA][dQ]R[β3hP][NMeR][Cha]SHKG[Oic][Nle][Aib][Phe(4-Cl)]-OH
SMILES: CCCCCCCCCCCCC(=O)N[C@@H](CCC(=O)NCCOCCOCC(=O)NCCOCCOCC(=O)N[C@H](CCC(N)=O)C(=O)N[C@@H](CCCNC(=N)N)C(=O)N1CCC[C@H]1CC(=O)N(C)[C@@H](CCCNC(=N)N)C(=O)N[C@@H](CC1CCCCC1)C(=O)N[C@@H](CO)C(=O)N[C@@H](Cc1c[nH]cn1)C(=O)N[C@@H](CCCCN)C(=O)NCC(=O)N1[C@H](C(=O)N[C@@H](CCCC)C(=O)NC(C)(C)C(=O)N[C@@H](Cc2ccc(Cl)cc2)C(=O)O)C[C@@H]2CCCC[C@@H]21)C(=O)O
B15: Apelin polypeptide SEQ ID NO: 396 (peptide)
peptide: Tridecanoyl-[AC4Abu][AEEA][AEEA]QR[NMeR][αMeL]SHKG[Oic][Nle]P[Phe(4-Cl)]-OH
SMILES: CCCCCCCCCCCCC(=O)NCCC(C(=O)O)C(=O)NCCOCCOCC(=O)NCCOCCOCC(=O)N[C@@H](CCC(N)=O)C(=O)N[C@@H](CCCNC(=N)N)C(=O)N(C)[C@@H](CCCNC(=N)N)C(=O)N[C@@](C)(CC(C)C)C(=O)N[C@@H](CO)C(=O)N[C@@H](Cc1c[nH]cn1)C(=O)N[C@@H](CCCCN)C(=O)NCC(=O)N1[C@H](C(=O)N[C@@H](CCCC)C(=O)N2CCC[C@H]2C(=O)N[C@@H](Cc2ccc(Cl)cc2)C(=O)O)C[C@@H]2CCCC[C@@H]21
B16: Apelin polypeptide SEQ ID NO: 447 (peptide)
peptide: Tridecanoyl-[γGlu][AEEA][AEEA]QR[NMeR][BLeu]SHKG[Oic][Nle]P[Phe(4-Cl)]-OH
B17: Apelin polypeptide SEQ ID NO: 446 (peptide)
peptide: Tridecanoyl-[γGlu][AEEA][AEEA]QR[NMeR][Cha]SHKG[Oic][Nle]P[Phe(4-Cl)]-OH
SMILES: CCCCCCCCCCCCC(=O)N[C@@H](CCC(=O)NCCOCCOCC(=O)NCCOCCOCC(=O)N[C@@H](CCC(N)=O)C(=O)N[C@@H](CCCNC(=N)N)C(=O)N(C)[C@@H](CCCNC(=N)N)C(=O)N[C@@H](CC1CCCCC1)C(=O)N[C@@H](CO)C(=O)N[C@@H](Cc1c[nH]cn1)C(=O)N[C@@H](CCCCN)C(=O)NCC(=O)N1[C@H](C(=O)N[C@@H](CCCC)C(=O)N2CCC[C@H]2C(=O)N[C@@H](Cc2ccc(Cl)cc2)C(=O)O)C[C@@H]2CCCC[C@@H]21)C(=O)O
B18: Apelin polypeptide SEQ ID NO: 521 (peptide)
peptide: Tridecanoyl-[γGlu][AEEA][AEEA][dQ]R[Pip′][hArg][BLeu]SHKG[Oic][Nle][Aib][Phe(4-Cl)]-OH
B19: Apelin polypeptide SEQ ID NO: 440 (peptide)
peptide: Tridecanoyl-[γGlu][AEEA][AEEA]QR[Pip′][NMeR][Cha]SHKG[Oic][Nle]P[Phe(4-Cl)]-OH
B20: Apelin polypeptide SEQ ID NO: 517 (peptide)
peptide: Tridecanoyl-[γGlu][AEEA][AEEA][dQ]R[Pip′][NMeR][Cha]SHKG[Oic][Nle][Aib][Phe(4-Cl)]-OH

molecular target: T1, rat APJ receptor (rat, UniProt Q9JHG3 1-377); assay: cell-based or functional assay
T1 sequence (looked up): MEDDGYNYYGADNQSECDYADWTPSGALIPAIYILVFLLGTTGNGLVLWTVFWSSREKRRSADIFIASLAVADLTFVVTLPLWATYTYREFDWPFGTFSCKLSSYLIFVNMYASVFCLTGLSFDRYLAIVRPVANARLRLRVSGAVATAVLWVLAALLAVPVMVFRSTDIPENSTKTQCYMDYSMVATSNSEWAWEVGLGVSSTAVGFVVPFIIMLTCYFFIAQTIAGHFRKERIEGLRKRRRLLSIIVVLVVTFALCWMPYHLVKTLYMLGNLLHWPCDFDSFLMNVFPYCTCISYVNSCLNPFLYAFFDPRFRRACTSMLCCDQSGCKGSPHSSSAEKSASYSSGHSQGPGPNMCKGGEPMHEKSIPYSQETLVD

Row | Binder | EC50 Rat APJ Receptor (GTPγS assay)
1 | B1 | 35.9 nM
2 | B2 | 56.1 nM
3 | B3 | 0.856 nM
4 | B4 | 68.2 nM
5 | B5 | 4.81 nM
6 | B6 | 2.12 nM
7 | B7 | 23.1 nM
8 | B8 | 0.516 nM
9 | B9 | 44.7 nM
10 | B10 | 69.1 nM
11 | B11 | 71.9 nM
12 | B12 | 6.77 nM
13 | B13 | 2.01 nM
14 | B14 | 2.02 nM
15 | B15 | 1.14 nM
16 | B16 | 14.8 nM
17 | B17 | 1.9 nM
18 | B18 | 3.21 nM
19 | B19 | 4.26 nM
20 | B20 | 3.22 nM

molecular target: T2, human APJ receptor (human, UniProt P35414 1-380); assay: cell-based or functional assay
T2 sequence (looked up): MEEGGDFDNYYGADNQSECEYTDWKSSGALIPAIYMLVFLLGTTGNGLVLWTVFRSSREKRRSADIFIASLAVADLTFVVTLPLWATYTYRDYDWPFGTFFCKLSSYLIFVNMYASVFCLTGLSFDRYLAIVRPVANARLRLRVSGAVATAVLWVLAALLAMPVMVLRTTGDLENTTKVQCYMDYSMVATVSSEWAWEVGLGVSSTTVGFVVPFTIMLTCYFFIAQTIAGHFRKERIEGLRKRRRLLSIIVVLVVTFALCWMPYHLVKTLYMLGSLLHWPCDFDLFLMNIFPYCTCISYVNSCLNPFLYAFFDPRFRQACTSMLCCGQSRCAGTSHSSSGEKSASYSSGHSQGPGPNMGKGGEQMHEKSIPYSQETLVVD

Row | Binder | EC50 Human APJ Receptor (GTPγS assay)
21 | B1 | 10.3 nM
22 | B2 | 9.18 nM
23 | B3 | 0.584 nM
24 | B4 | 10.9 nM
25 | B5 | 0.456 nM
26 | B6 | 0.16 nM
27 | B7 | 1.39 nM
28 | B8 | 0.0707 nM
29 | B9 | 9.74 nM
30 | B10 | 18 nM
31 | B11 | 25.6 nM
32 | B12 | 0.523 nM
33 | B13 | 2.23 nM
34 | B14 | 0.557 nM
35 | B15 | 0.977 nM
36 | B16 | 9.66 nM
37 | B17 | 1.11 nM
38 | B18 | 1.03 nM
39 | B19 | 3.48 nM
40 | B20 | 0.62 nM
